US20210130474A1 (DRAGONFLY THERAPEUTICS, published 2021)

B1: A49-TriNKET-CAIX (ADI-27749 and a CAIX-binding domain) (bispecific antibody, V domains shown)
VH 1: EVQLVESGGGLVKPGGSLRLSCAASGFTFSSYSMNWVRQAPGKGLEWVSSISSSSSYIYYADSVKGRFTISRDNAKNSLYLQMNSLRAEDTAVYYCARGAPMGAAAGWFDPWGQGTLVTVSS
VL 1: DIQMTQSPSSVSASVGDRVTITCRASQGISSWLAWYQQKPGKAPKLLIYAASSLQSGVPSRFSGSGSGTDFTLTISSLQPEDFATYYCQQGVSFPRTFGGGTKVEIK
VH 2: QVELVESGGGLVQPGGSLRLSCAASGFTFSSYGMSWVRQAPGKGLEWVSGISSLGSTTYYADSVKGRFTISRDNSKNTLYLQMNSLRAEDTAVYYCARTGSPGTFMHGDHWGQGTLVTVSS
VL 2: DIQMTQSPSSLSASVGDRVTITCRASQDINNYLSWYQQKPGKAPKLLIYGASNLQSGVPSRFSGSGSGTDFTLTISSLQPEDFAVYYCQQYYGRPTTFGQGTKVEIK
B2: E79-TriNKET-CAIX (ADI-29379 and a CAIX-binding domain) (bispecific antibody, V domains shown)
VH 1: QVQLVQSGAEVKKPGASVKVSCKASGYTFTSYYMHWVRQAPGQGLEWMGIINPSGGSTSYAQKFQGRVTMTRDTSTSTVYMELSSLRSEDTAVYYCARGAPNYGDTTHDYYYMDVWGKGTTVTVSS
VL 1: EIVMTQSPATLSVSPGERATLSCRASQSVSSNLAWYQQKPGQAPRLLIYGASTRATGIPARFSGSGSGTEFTLTISSLQSEDFAVYYCQQYDDWPFTFGGGTKVEIK
VH 2: QVELVESGGGLVQPGGSLRLSCAASGFTFSSYGMSWVRQAPGKGLEWVSGISSLGSTTYYADSVKGRFTISRDNSKNTLYLQMNSLRAEDTAVYYCARTGSPGTFMHGDHWGQGTLVTVSS
VL 2: DIQMTQSPSSLSASVGDRVTITCRASQDINNYLSWYQQKPGKAPKLLIYGASNLQSGVPSRFSGSGSGTDFTLTISSLQPEDFAVYYCQQYYGRPTTFGQGTKVEIK
B3: A44-TriNKET-CAIX (ADI-27744 and a CAIX-binding domain) (bispecific antibody, V domains shown)
VH 1: not shown
VL 1: DIQMTQSPSSVSASVGDRVTITCRASQGIDSWLAWYQQKPGKAPKLLIYAASSLQSGVPSRFSGSGSGTDFTLTISSLQPEDFATYYCQQGVSYPRTFGGGTKVEIK
VH 2: QVELVESGGGLVQPGGSLRLSCAASGFTFSSYGMSWVRQAPGKGLEWVSGISSLGSTTYYADSVKGRFTISRDNSKNTLYLQMNSLRAEDTAVYYCARTGSPGTFMHGDHWGQGTLVTVSS
VL 2: DIQMTQSPSSLSASVGDRVTITCRASQDINNYLSWYQQKPGKAPKLLIYGASNLQSGVPSRFSGSGSGTDFTLTISSLQPEDFAVYYCQQYYGRPTTFGQGTKVEIK
B4: F47-TriNKET-CAIX (ADI-29447 and a CAIX-binding domain) (bispecific antibody, V domains shown)
VH 1: QVQLQQWGAGLLKPSETLSLTCAVYGGSFSGYYWSWIRQPPGKGLEWIGEIDHSGSTNYNPSLKSRVTISVDTSKNQFSLKLSSVTAADTAVYYCARARGPWSFDPWGQGTLVTVSS
VL 1: DIQMTQSPSTLSASVGDRVTITCRASQSISSWLAWYQQKPGKAPKLLIYKASSLESGVPSRFSGSGSGTEFTLTISSLQPDDFATYYCQQYDTFITFGGGTKVEIK
VH 2: QVELVESGGGLVQPGGSLRLSCAASGFTFSSYGMSWVRQAPGKGLEWVSGISSLGSTTYYADSVKGRFTISRDNSKNTLYLQMNSLRAEDTAVYYCARTGSPGTFMHGDHWGQGTLVTVSS
VL 2: DIQMTQSPSSLSASVGDRVTITCRASQDINNYLSWYQQKPGKAPKLLIYGASNLQSGVPSRFSGSGSGTDFTLTISSLQPEDFAVYYCQQYYGRPTTFGQGTKVEIK

Tests used:
[1] = target: T1, CAIX expressed on human renal cell carcinoma line A498 (human, UniProt Q16790 38-459); experiment: cell-based or functional assay
[2] = target: T1, CAIX expressed on human renal cell …; experiment: flow cytometry on A498 cells, MFI fold over background
From the text: Human renal cell carcinoma line A498 expressing CAIX was used to assay the binding of TriNKETs to the tumor associated antigen CAIX.

| Binder | specific lysis of A498 target cells by rested KHYG-1 cells (DELFIA cytotoxicity assay), increase over co-culture without TriNKET [1] [%] | binding result [2] |
| --- | --- | --- |
| B1 | ~20 | – |
| B2 | ~20 | – |
| B3 | ~20 | – |
| B4 | – | binds |
